# ± gives the uncertainty stated by the source.
# Test: self-splicing fitness, log relative to wild type (ln ratio); higher = more splicing; Tetrahymena group I intron in knt gene, E. coli kanamycin selection, DiMSum; sequences stand for … in CUCUCU…GGAGGGAAAAGUUAUCAGGCAUGCACCUGGUAGCUAGUCUUUAAACCAAUAGAUUGCAUCGGUUUAAAAGGCAAGACCGUCAAAUUGCGGGAAAGGGGUCAACAGCCGUUCAGUACCAAGUCUCAGGGGAAACUUUGAGAUGGCCUUGCAAAGGGUAUGGUAAUAAGCUGACGGACAUGGUCCUAACCACGCAGCCAAGUCCUAAGUCAACAGAUCUUCUGUUGAUAUGGAUGCAGUUCACAGACUAAAUGUCGGUCGGGGAAGAUGUAUUCUUCUCAUAAGAUAUAGUCGGACCUCUCCUUAAUGGGAGCUAGCGGAUGAAGUGAUGCAACACUGGAGCCGCUGGGAACUAAUUUGUAUGCGAAAGUAUAUUGAUUAGUUUUGGAGUACUCGUGGUCG
# Procedure, shortened: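 DiMSum derived fitness as the error-weighted combination of fold changes across replicates, kanamycin versus no kanamycin, normalised to wild type. E. coli BL21(DE3) held the library, which randomised all eight P1ex-region intron nucleotides within the knt kanamycin-resistance gene on pET-22b(+). Six replicate transformations grew overnight at 37°C or 30°C on LB agar with or without 25 μg/mL kanamycin, also containing 100 μg/mL carbenicillin, 50 μM IPTG and 0.2% rhamnose, and pooled colonies were amplicon-sequenced on an Illumina HiSeq 2500.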
Sequence,self-splicing fitness (ln) (30 °C),self-splicing fitness (ln) (37 °C)
CCGCAGCAAUAUUACGAAGC,-3.14 ± 0.22,-3.36 ± 0.25
UGCGAGCAAUAUUACGUGUU,-3.58 ± 0.43,-2.47 ± 0.32
AAGUAGCAAUAUUACGUUAG,-3.51 ± 0.23,-3 ± 0.34
UGAUAGCAAUAUUACGGAAG,-1.99 ± 0.14,-1.64 ± 0.21
CUGGAGCAAUAUUACGAAUC,-3.47 ± 0.43,-1.68 ± 0.45
AUUGAGCAAUAUUACGAACC,–,-2.31 ± 0.46
ACUGAGCAAUAUUACGUAAG,-2.02 ± 0.086,-0.834 ± 0.1
GAUUAGCAAUAUUACGAUUU,-0.392 ± 0.12,0.757 ± 0.13
GCACAGCAAUAUUACGAAUC,-1.15 ± 0.076,-0.69 ± 0.079
CAUUAGCAAUAUUACGGGUC,-3.51 ± 0.29,-1.5 ± 0.23
UUGAAGCAAUAUUACGGCGC,-2.04 ± 0.17,-0.68 ± 0.19
UGCAAGCAAUAUUACGAAGC,–,-1.87 ± 0.4
UAAGAGCAAUAUUACGACAU,-3.866 ± 0.031,-2.82 ± 0.043
UGUCAGCAAUAUUACGGCAG,-1.55 ± 0.11,-0.219 ± 0.13
GUGGAGCAAUAUUACGUGAA,–,-0.49 ± 0.28
GAUUAGCAAUAUUACGCGGC,-3.08 ± 0.38,-2 ± 0.35
GUUAAGCAAUAUUACGGUUA,-1.33 ± 0.096,-0.554 ± 0.096
GUCUAGCAAUAUUACGCUAA,-0.815 ± 0.091,0.163 ± 0.093
GUCGAGCAAUAUUACGGUGA,-2.64 ± 0.15,-1.91 ± 0.2
ACCCAGCAAUAUUACGAACC,-2.19 ± 0.15,-0.993 ± 0.15
AGAUAGCAAUAUUACGAGUG,-2.72 ± 0.15,-1.22 ± 0.14
UUCCAGCAAUAUUACGCGCA,-0.0641 ± 0.12,-0.358 ± 0.14

Sequence,self-splicing fitness (ln) (30 °C),self-splicing fitness (ln) (37 °C)
UAGAAGCAAUAUUACGCAAA,-1.24 ± 0.22,-1.03 ± 0.31
UGCUAGCAAUAUUACGACGU,-1.71 ± 0.22,-2.36 ± 0.32
CGAGAGCAAUAUUACGGUAC,-3.63 ± 0.47,-0.529 ± 0.28
UCAUAGCAAUAUUACGGCUG,-1.33 ± 0.11,-1.12 ± 0.14
AGCGAGCAAUAUUACGGGCU,–,-1.59 ± 0.24
UUCCAGCAAUAUUACGUCAU,-3.65 ± 0.2,-2.72 ± 0.2
AUUAAGCAAUAUUACGGCGA,-0.67 ± 0.12,-0.121 ± 0.14
GUGGAGCAAUAUUACGCAAU,-1.83 ± 0.1,-1.25 ± 0.13
AGACAGCAAUAUUACGGAAU,-3.47 ± 0.14,-2.29 ± 0.17
UCUUAGCAAUAUUACGCCAG,-2.74 ± 0.27,–
ACUAAGCAAUAUUACGUCCG,-1.69 ± 0.12,-0.322 ± 0.17
CCAGAGCAAUAUUACGGAGG,-2.49 ± 0.18,-1.87 ± 0.24
CCAAAGCAAUAUUACGCGUG,-1.93 ± 0.067,-1.26 ± 0.066
AUAGAGCAAUAUUACGUGGG,-3.77 ± 0.31,-1.79 ± 0.32
GCACAGCAAUAUUACGCUGU,-3.33 ± 0.14,-2.23 ± 0.17
CGCGAGCAAUAUUACGAGUU,-3.3 ± 0.2,-3.19 ± 0.26
UUUAAGCAAUAUUACGGGCG,-0.49 ± 0.13,0.635 ± 0.21
AUUUAGCAAUAUUACGUAUC,–,-2.15 ± 0.32
GGCUAGCAAUAUUACGGCAA,0.218 ± 0.07,-0.682 ± 0.086
CCAUAGCAAUAUUACGGCAU,-4.02 ± 0.24,-1.78 ± 0.2
ACAGAGCAAUAUUACGAGAG,–,-2.6 ± 0.28
CGACAGCAAUAUUACGCAAA,-3.94 ± 0.31,-3.08 ± 0.22

# Reference: the supplement of paper PMC7877785
